# Measurements reported in patent US20220144922A1 (Adimab, published 2022).
# B1: ADI-15574 (antibody, V domains shown)
# VH: QVQLVQSGGGLVKPGGSLRLSCAASGFTISGYNMFWVRQPPGKGLEWVSSITAGSSYLNYADSVKGRFIVSRDNAKNSLYLQMNSLRAEDTAVYFCARAPLLPAMMDLWGQGTTVTVSS
# VL: QSVLTQPPSVSGAPGQRVTISCTGSSSNIGAGYDVHWYQQLPGTAPKLLIYTNNNRPSGVPDRFSGSKSGTSASLAITGLQAEDEADYYCQSYDRSLNGYVFGTGTKLTVL
# notes: IgG; also called Antibody Number 144
# B2: ADI-15624 (antibody, V domains shown)
# VH: QVQLVQSGGGLVKAGGSLRLSCAASGFTISGFYMTWIRQAPGKGLEWVSSISGSSSYTNYADSVKGRFTISRDNAKNSLYLHMNSLRAEDTAVYYCARIRPDDSSGYPDYWGQGTLVTVSS
# VL: QSVLTQPPSVSGAPGQRVTISCTGSSSNIGAGYDVHWCQQLPGTAPKLLIYGNNNRPSGVPDRFSGSKSGTSASLAITGLQAEDEADYYCQSYDSSLSGFVFGTGTKVTVL
# notes: IgG; also called Antibody Number 189
# B3: ADI-15648 (antibody, V domains shown)
# VH: EVQLVESGGGLVKPGGSLRLSCAASGFTISGYNMFWVRQPPGKGLEWVSSITAGSSYLNYADSVKGRFIVSRDNAKNSLYLQMNSLRAEDTAVYFCARAPLLPAMMDLWGQGTTVTVSS
# VL: QSVVTQPPSVSGAPGQRVTISCTGSSSNIGAGYDVHWYQQLPGTAPKLLIYTNNNRPSGVPDRFSGSKSGTSASLAITGLQAEDEADYYCQSYDRSLNGYVFGTGTTVTVL
# notes: IgG; also called Antibody Number 212
# B4: ADI-15635 (antibody, V domains shown)
# VH: EVQLLESGGGLVKPGGSLRLSCAASGFTISGYNMFWVRQPPGKGLEWVSSITAGSSYLNYADSVKGRFIVSRDNAKNSLYLQMNSLRAEDTAVYFCARAPLLPAMMDLWGQGTTVTVSS
# VL: QSVLTQPPSVSGAPGQRVTISCTGSSSNIGAGYDVHWYQQLPGTAPKLLIYTNNNRPSGVPDRFSGSKSGTSASLAITGLQAEDEADYYCQSYDRSLNGYVFGTGTKVTVL
# notes: IgG; also called Antibody Number 200
# B5: ADI-15558 (antibody, V domains shown)
# VH: QVQLVQSGGEVKKPGASVKVSCKASGYTFTTYGISWVRQAPGHGLEWLGWISPKNGNTKYAQKVQGRVTMTIDPTTSTAYMELRSLRSDDTAMYYCARDYIVAIVAALPHGMDVWGQGTLVTVSS
# VL: QSVLTQPPSLSVSPGQTASISCSGDQLGNKYVCWYQQKPGQSPVLVIYQDSRRPSGVPERFSGSNSGNTATLTVGGTQPMDEADYYCQAWDSSIRVFGGGTKVTVL
# notes: IgG
# B6: ADI-15616 (antibody, V domains shown)
# VH: QVQLVQSGGGLVKPGGSLRLSCAASGFTFSDHYMTWIRQAPGKGLEWVSYISSTSSFTNYADSVKGRFTISRDNAKKSLYLQMNSLRAEDTAVYYCARDRNWGYAYGSDYWGQGTLVTVSS
# VL: DIRLTQSPDTLSLSPGERATLSCRASQSVSSTYLAWYQQKPGQAPRLLIYGAFGRATGIPDRFSGSGSGTDFTLTISRLEPEDFAVYYCQLYGNSRTFGQGTKLEIK
# notes: IgG
# B7: ADI-15595 (antibody, V domains shown)
# VH: EVQLVESGPTLVKPTQTLTLTCTFSGFSLTTIGVGVGWIRQPPGKALEFLGIVYWDDDKRYSPSLKSRLTITKDTSKNQVVLTMTTLAPEDTGTYYCTYARYSSALFGGYYFHSWGQGTLVTVSS
# VL: QSVLTQPPSVSVAPGQTAKITCGGNDIGSRSVHWYQQKPGQAPVLVVYDNSDRPSGIPERFSGSNSGDTATLTISRVEAGDEAVYYCQVWESSGDHPRIFGGGTKLTVL
# B8: ADI-15637 (antibody, V domains shown)
# VH: QVQLVQSGAEVTKPGASVRVSCKFSAYTLSALSIHWVRQAPGKGLEWMGAFDPEDGEPIYSQHFQGRVTMTEDTSTQTAYMELNSLRSEDTAVYYCSSVGPAGWFDPWGQGTLVTVSS
# VL: DIRLTQSPSSLSASVGDRVSITCRASQSISSYLHWYQQKPGKAPKLLIYAASSLQSGVPSRFSGSGSGSDFTLTISSLQPEDFATYYCHQSYIPPFTFGPGTKLEIK
# notes: IgG; also called Antibody Number 202
# B9: ADI-15620 (antibody, V domains shown)
# VH: QVQLVQSGAEVKKPGASVKVSCKASGYTFTSYDINWVRQATGHGLEWMGWMSPNSGYTGYAQKFQGRVTMSRNTSTGTAYMELSSLRSEDTAVYYCAREARDLRVGATNFDYWGQGTLVTVSS
# VL: QPVLTQPPSVSVSPGQTASITCSGDKLGDKYISWYQQRPGQSPVMVIYQDSKGPSGIPERFSGSNSGNTATLTISGTQAMDEADYYCQAWDSSIDVVFGGGTKLTVL
# notes: IgG
# B10: ADI-15618 (antibody, V domains shown)
# VH: EVQLVETGGGLIQPGGSLRLSCVASGFSLRNYALGWLRQAPGKGLEWVSGGYYGDVYYTDSVKGRFAVSRDNSGDTVYLEMDNLRVEDTAVYYCARMETVTTDAGSGWDWYFEVWGRGTLVTVSS
# VL: ETTLTQSPATLSLSPGDWATLSCRASQSVGTYLAWYQHKPGQAPRLLIHDASNRASDIPSRFSGSGSGTDFTLTIRGLEPEDFAVYYCQQHRDWRPVTFGGGTKVEIK
# notes: IgG
# B11: ADI-15622 (antibody, V domains shown)
# VH: QVQLQESGGGLVQPGGSLRLSCSASGFTFSNYGMSWVRQAPGKGLEWVSGIGVSDGSTHYADSVKGRFIISRDNSKNMLSLQMSSLGVDDTAVYYCARIVIVGVLRFQEWLSSDGMDVWGQGTTVTVSS
# VL: DIVMTQTPSSVSASVGDRVTITCRASQAISGGLAWYQQKAGKAPKLLIYAASNLPSGVPSRFSGSGSGTDFTLTISSLQPEDFATYYCQQANSFPFTFGQGTRLEIK
# notes: IgG; also called Antibody Number 187
# B12: ADI-15621 (antibody, V domains shown)
# VH: QVQLVQSGPEMKKPGSSVKVSCKPSGGTFSSYSVSWVRQAPGQGLEWMGGIIPIFGSSDYAQKFQGRLTITEDESTKTSYMQLNNLTSDDTAIYFCARDNYYVWTGHYPEFDFWGQGTLVTVSS
# VL: ETTLTQSPGTLSLSLGETATLSCRASQSVRSDYLAWYQQKPGQAPRLLISGASNRATAIPERFTGSGSGTDFTLTISSLEPADFAVYYCQQYGSTPITFGQGTRLEIK
# notes: IgG; also called Antibody Number 186
# B13: ADI-15625 (antibody, V domains shown)
# VH: EVQLVESGAEVRKPGASVQVSCKASGYTFTSYYMHWVRQAPGHGLEWMGMIYPSGGSTSYAQKFQGRVTMTRDTSTSTVYMELSSLRSEDAAVYYCARDRAGCSGGSCYYYGMDVWGQGTTVTVSS
# VL: NFMLTQPPSVSVSPGQTASITCSGNKLGDKYACWYQQKPGQSPVLVISQDSKRPSGIPERFSGSNSGNTATLTISGTQAMDEADYYCQAWDSRTVVFGGGTKLTVL
# notes: IgG; also called Antibody Number 190
# B14: ADI-15557 (antibody, V domains shown)
# VH: QVQLVQSGAEVKRPGSSVKVSCKASGGTFSSFAINWVRQAPGQGLEWMGGLIPIFGTPNNAQKFQGRVTITADESTSTAYMELSSLRSEDTAVYYCASLRYFDWQPGGSYWFDPWGQGTLVTVSS
# VL: QPGLTQPPSVSVAPGKTARIACGGDNIGTKGVHWYQQKPGQAPVLVIYYDSDRPSGIPERFSGSNSGNTATLTISGVEAGDEADYYCQVWDTIDDHKDGLFGGGTKLTVL
# notes: IgG
# B15: ADI-15631 (antibody, V domains shown)
# VH: QVQLVESGGGLVQPGRSLRLSCAASGFTFDNYPMHWIRQAPGKGLEWVSGISWHSGSIGYADSVKGRFTISRDNAKNSLYLQMNSLRTEDTALYYCAKDAHYFDNSGHYYYGLDVWGQGTTVTVSS
# VL: EIVLTQSPATLSVSPGERATLSCRASQNIINNLAWYQQKPGQAPRLLISGASTRATGIPARFSGSGSGTEFTLTITSLQSEDFAVYYCQQYNNWPLTFGGGTKVDIK
# notes: IgG
# B16: ADI-15607 (antibody, V domains shown)
# VH: QVQLVQSGGGLVQPGGSLRLSCAASRFTFSSYAMSWVRQAPGKGLEWVSTISGSGISTYYADSVKGRFTISRDNSKNTLYLQMNSLSAEDTAVYYCAKELREYYYDSSGFDYWGQGTLVTVSS
# VL: QPVLTQSRSVSGSPEQSVTISCTGTSSDVGGYNYVSWYQQHPGKAPKLMIYDVSKRPSGVPDRFSGSKSGNTASLTISGLQAEDESDYYCCSYAGTYTYVFGTGTKVTVL
# B17: ADI-15559 (antibody, V domains shown)
# VH: QVQLVQSGAEVKKPGSSVKVSCKASGGSLSTYGIHWVRQAPGQGLEWVGGVMTVYGKTTYGQNFQGRVTIAVDRSTNTAYMELSSLTSDDTGTYYCATDSYYVWTGSYPPPFDLWGQGTLVTVSS
# VL: EIVLTQTPGTQSLSPGQSATLSCRASHSVGNDYLAWYQQKPGQSPRLLIHGAYRRDSGIPDRFIGSGSGTDFTLTIDSLEPDDCAVYYCQQYGSWPLTFGGGTKVDIK
# notes: IgG; also called Antibody Number 130
# B18: ADI-15597 (antibody, V domains shown)
# VH: QVQLVQSGGGLVKPGGSLRLSCAGSGFTFSSYTLNWVRQAPGKGLEWVSSISSSSTYIYYADSVKGRFTISRDNAKNSLHLQMNSLRAEDTAVYYCARADYDRSVYHLNWFDPWGQGTLVTVSS
# VL: QSVLTQPPSVSGAPGQRVTISCTGSSSNIGAGYDVHWYQQLPGAAPKLLIYGNTNRPSGVPDRFSGSKSGTSASLAITGLQADDEADYYCQSYDSSLSGTWVFGGGTKLTVL
# notes: IgG
# B19: ADI-15615 (antibody, V domains shown)
# VH: EVQLVETGGGLVKPGGSLRLSCAGSGFTFSSYTLNWVRQAPGKGLEWVSSISSSSTYIYYADSVKGRFTISRDNAKNSLHLQMNSLRAEDTAVYYCARADYDRSVYHLNWLDPWGQGTLVTVSS
# VL: QPVLTQPPSVSGAPGQRVTISCTGSSSNIGAGYDVHWYQQLPGAAPKLLIYGNTNRPSGVPDRFSGSKSGTSASLAITGLQADDEADYYCQSYDSSLSGTWVFGGGTKLTVL
# notes: IgG; also called Antibody Number 180
# What was measured:
# [1] = target: T1, prefusion-stabilized RSV F ectodomain (DS-Cav1), subtype B (respiratory syncytial virus subtype B); test: BLI, IgG on sensor
# T1 construct: extracellular domain; also called Prefusion subtype B
# Method: IgG binding to DS-Cav1 and FA FP was determined by BLI measurements using a FortéBio Octet HTX instrument (Pall Life Sciences). […] Data was analyzed using the ForteBio Data Analysis Software 7. The data was fit to a 1:1 binding model to calculate an association and dissociation rate, and KD was calculated using the ratio kd/kₐ.
# [2] = target: RSV F protein of subtype A strain A2, on virus (respiratory syncytial virus subtype A …, UniProt P03420 26-574); test: cell-based or functional assay
# [3] = target: RSV F protein of subtype B strain 18537, on virus (respiratory syncytial virus subtype B …, UniProt P13843 26-574); test: cell-based or functional assay
binder,measurement,setting,value
B1,Kd,[1],0.46 nM
same,Neut IC50 (ug/ml) subtype A,[2],0.176 µg/mL
same,Neut IC50 (ug/ml) subtype B,[3],0.226 µg/mL
B2,Kd,[1],0.407 nM
same,Neut IC50 (ug/ml) subtype A,[2],0.051 µg/mL
same,Neut IC50 (ug/ml) subtype B,[3],0.033 µg/mL
B3,Kd,[1],0.438 nM
same,Neut IC50 (ug/ml) subtype A,[2],0.064 µg/mL
same,Neut IC50 (ug/ml) subtype B,[3],0.145 µg/mL
B4,Kd,[1],0.431 nM
same,Neut IC50 (ug/ml) subtype A,[2],0.115 µg/mL
same,Neut IC50 (ug/ml) subtype B,[3],0.226 µg/mL
B5,Kd,[1],0.94 nM
B6,Kd,[1],1.74 nM
same,Neut IC50 (ug/ml) subtype A,[2],4.52 µg/mL
same,Neut IC50 (ug/ml) subtype B,[3],5.58 µg/mL
B7,Neut IC50 (ug/ml) subtype A,[2],0.02 µg/mL
same,Neut IC50 (ug/ml) subtype B,[3],0.17 µg/mL
B8,Kd,[1],6.13 nM
same,Neut IC50 (ug/ml) subtype A,[2],0.357 µg/mL
same,Neut IC50 (ug/ml) subtype B,[3],1.05 µg/mL
B9,Kd,[1],1.4 nM
same,Neut IC50 (ug/ml) subtype A,[2],0.077 µg/mL
same,Neut IC50 (ug/ml) subtype B,[3],0.053 µg/mL
B10,Kd,[1],0.535 nM
same,Neut IC50 (ug/ml) subtype A,[2],0.003 µg/mL
B11,Kd,[1],1.51 nM
same,Neut IC50 (ug/ml) subtype A,[2],0.544 µg/mL
same,Neut IC50 (ug/ml) subtype B,[3],1.37 µg/mL
B12,Kd,[1],0.555 nM
same,Neut IC50 (ug/ml) subtype A,[2],0.018 µg/mL
same,Neut IC50 (ug/ml) subtype B,[3],0.021 µg/mL
B13,Kd,[1],2.61 nM
same,Neut IC50 (ug/ml) subtype A,[2],0.239 µg/mL
same,Neut IC50 (ug/ml) subtype B,[3],1.2 µg/mL
B14,Kd,[1],0.61 nM
same,Neut IC50 (ug/ml) subtype A,[2],0.041 µg/mL
same,Neut IC50 (ug/ml) subtype B,[3],0.028 µg/mL
B15,Kd,[1],0.552 nM
same,Neut IC50 (ug/ml) subtype A,[2],0.099 µg/mL
same,Neut IC50 (ug/ml) subtype B,[3],0.207 µg/mL
B16,Neut IC50 (ug/ml) subtype A,[2],> 10 µg/mL
same,Neut IC50 (ug/ml) subtype B,[3],> 10 µg/mL
B17,Kd,[1],0.98 nM
same,Neut IC50 (ug/ml) subtype A,[2],0.008 µg/mL
same,Neut IC50 (ug/ml) subtype B,[3],0.006 µg/mL
B18,Kd,[1],6.09 nM
same,Neut IC50 (ug/ml) subtype A,[2],0.163 µg/mL
same,Neut IC50 (ug/ml) subtype B,[3],1.79 µg/mL
B19,Kd,[1],11.6 nM
same,Neut IC50 (ug/ml) subtype A,[2],0.977 µg/mL
same,Neut IC50 (ug/ml) subtype B,[3],1.68 µg/mL
